Reference: article PMC2783589

Target: revised CpaD from Aspergillus flavus NRRL3357 (full length, with the 43 N-terminal residues added) (Aspergillus flavus NRRL3357)
Assay: SEC

stoichiometry N: 2
Substance: revised CpaD from Aspergillus flavus NRRL3357 (full length, with the 43 N-terminal residues added) (enzyme)
